According to patent US20210061914A1 (published 2021):

Assays:
[1] = target: HLA-A*01:01_… (HLA-PEPTIDE target G10), soluble (human, enzymatically biotinylated (BirA)); experiment: scFv PPE ELISA
[2] = target: HLA-A*02:01_… (HLA-PEPTIDE target G8), soluble (human, enzymatically biotinylated (BirA) for screening and BLI); experiment: scFv PPE ELISA

| Binder | fold selective binding, target pHLA vs minipool of negative control pHLAs [1] [fold] | fold selective binding, target pHLA vs minipool of negative control pHLAs [2] [fold] |
| --- | --- | --- |
| scFv R3G10-P1B07 (scFv, V domains shown, scFv) VH: QVQLVQSGAEVKKPGASVKVSCKASGYTFTSYYMHWVRQAPGQGLEWMGIIHPGGGTTSYAQKFQGRVTMTRDTSTSTVYMELSSLRSEDTAVYYCARDKVYGDGFDPWGQGTLVTVSS VL: DIQMTQSPSSLSASVGDRVTITCRASQSISRWLAWYQQKPGKAPKLLIFDASRLQSGVPSRFSGSGSGTDFTLTISSLQPEDFATYYCQQAEAFPYTFGQGTKVEIK | ≥ 3 |  |
| scFv R3G10-P2G11 (scFv, V domains shown, scFv) VH: QVQLVQSGAEVKKPGASVKVSCKASGGTFSTHDINWVRQAPGQGLEWMGVINPSGGSAIYAQKFQGRVTMTRDTSTSTVYMELSSLRSEDTAVYYCARDRGYSYGYFDYWGQGTLVTVSS VL: DIQMTQSPSSLSASVGDRVTITCRASQDISRYLAWYQQKPGKAPKLLIYDASNLETGVPSRFSGSGSGTDFTLTISSLQPEDFATYYCQQANSFPRTFGQGTKVEIK | ≥ 3 |  |
| scFv G8-P1A04 (scFv, V domains shown, scFv) VH: QVQLVQSGAEVKKPGASVKVSCKASGYPFIGQYLHWVRQAPGQGLEWMGIINPSGDSATYAQKFQGRVTMTRDTSTSTVYMELSSLRSEDTAVYYCARDLSYYYGMDVWGQGTTVTVSS VL: DIQMTQSPSSLSASVGDRVTITCWASQGISSYLAWYQQKPGKAPKLLIYAASSLQSGVPSRFSGSGSGTDFTLTISSLQPEDFATYYCQQSYNTPWTFGPGTKVDIK |  | ≥ 3 |
| scFv R3G10-P4C05 (scFv, V domains shown, scFv) VH: QVQLVQSGAEVKKPGASVKVSCKASGYTFTGYYMHWVRQAPGQGLEWMGIIGPSDGSTTYAQKFQGRVTMTRDTSTSTVYMELSSLRSEDTAVYYCARAENGMDVWGQGTTVTVSS VL: DIQMTQSPSSLSASVGDRVTITCRASQRISSYLNWYQQKPGKAPKLLIYSASTLQSGVPSRFSGSGSGTDFTLTISSLQPEDFATYYCQQSYSTPFTFGPGTKVDIK | ≥ 3 |  |
| scFv R3G10-P4D10 (scFv, V domains shown, scFv) VH: QVQLVQSGAEVKKPGASVKVSCKASGYTFTGYYLHWVRQAPGQGLEWMGMIGPSDGSTSYAQKFQGRVTMTRDTSTSTVYMELSSLRSEDTAVYYCARDGDAFDIWGQGTMVTVSS VL: DIQMTQSPSSLSASVGDRVTITCRASQGISSWLAWYQQKPGKAPKLLIYDASNLETGVPSRFSGSGSGTDFTLTISSLQPEDFATYYCQQSYSTPLTFGGGTKVEIK | ≥ 3 |  |
| scFv R3G10-P1A07 (scFv, V domains shown, scFv) VH: EVQLLESGGGLVKPGGSLRLSCAASGFTFSSYWMSWVRQAPGKGLEWVSGISARSGRTYYADSVKGRFTISRDDSKNTLYLQMNSLKTEDTAVYYCARDQDTIFGVVITWFDPWGQGTLVTVSS VL: DIQMTQSPSSLSASVGDRVTITCRASQGISNYLAWYQQKPGKAPKLLIYAASSLQGGVPSRFSGSGSGTDFTLTISSLQPEDFATYYCQQYFTTPYTFGQGTKLEIK | ≥ 3 |  |
| scFv G8-P1C11 (scFv, V domains shown, scFv) VH: QVQLVQSGAEVKKPGASVKVSCKASGGTLSSYPINWVRQAPGQGLEWMGWISTYSGHADYAQKLQGRVTMTRDTSTSTVYMELSSLRSEDTAVYYCARSYDYGDYLNFDYWGQGTLVTVSS VL: DIQMTQSPSSLSASVGDRVTITCQASQDISNYLNWYQQKPGKAPKLLIYAASSLQSGVPSRFSGSGSGTDFTLTISSLQPEDFATYYCQQSYSIPPTFGGGTKVDIK |  | ≥ 3 |
| scFv R3G10-P5C08 (scFv, V domains shown, scFv) VH: QVQLVQSGAEVKKPGASVKVSCKASGYNFTGYYMHWVRQAPGQGLEWMGIIAPSDGSTNYAQKFQGRVTMTRDTSTSTVYMELSSLRSEDTAVYYCARETGDDAFDIWGQGTMVTVSS VL: not shown | ≥ 3 |  |
| scFv R3G10-P4G06 (scFv, V domains shown, scFv; printed VH and VL equal those of R3G10-P4A02) VH: QVQLVQSGAEVKKPGASVKVSCKASGYTLSYYYMHWVRQAPGQGLEWMGMIGPSDGSTSYAQRFQGRVTMTRDTSTGTVYMELSSLRSEDTAVYYCARDTGDHFDYWGQGTLVTVSS VL: not shown | ≥ 3 |  |
| scFv R3G10-P3E04 (scFv, V domains shown, scFv) VH: QVQLVQSGAEVKKPGASVKVSCKASGNTFIGYYVHWVRQAPGQGLEWVGIINPNGGSISYAQKFQGRVTMTRDTSTSTVYMELSSLRSEDTAVYYCARGSGDPNYYYYYGLDVWGQGTTVTVSS VL: DIQMTQSPSSLSASVGDRVTITCQASQDISNYLNWYQQKPGKAPKLLIYAASNLQSGVPSRFSGSGSGTDFTLTISSLQPEDFATYYCQQANSLPYTFGQGTKVEIK | ≥ 3 |  |
| scFv R3G10-P1E12 (scFv, V domains shown, scFv) VH: QVQLVQSGAEVKKPGASVKVSCKASGYIFTGYYMHWVRQAPGQGLEWMGMIGPSDGSTSYAQKFQGRVTMTRDTSTSTVYMELSSLRSEDTAVYYCAREDDSMDVWGKGTTVTVSS VL: not shown | ≥ 3 |  |
| scFv G8-P1A03 (scFv, V domains shown, scFv) VH: QVQLVQSGAEVKKPGASVKVSCKASGGTFSRSAITWVRQAPGQGLEWMGWINPNSGATNYAQKFQGRVTMTRDTSTSTVYMELSSLRSEDTAVYYCARDDYGDYVAYFQHWGQGTLVTVSS VL: DIQMTQSPSSLSASVGDRVTITCRASQSITSYLNWYQQKPGKAPKLLIYDASNLETGVPSRFSGSGSGTDFTLTISSLQPEDFATYYCQQNYNSVTFGQGTKLEIK |  | ≥ 3 |
| scFv R3G10-P4D04 (scFv, V domains shown, scFv) VH: QVQLVQSGAEVKKPGASVKVSCKASGYTFTGYYVHWVRQAPGQGLEWMGIIAPSDGSTNYAQKFQGRVTMTRDTSTSTVYMELSSLRSEDTAVYYCARDPGGYMDVWGKGTTVTVSS VL: DIQMTQSPSSLSASVGDRVTITCRASQSISSYLAWYQQKPGKAPKLLIYDASKLETGVPSRFSGSGSGTDFTLTISSLQPEDFATYYCQQSYGVPTFGQGTKLEIK | ≥ 3 |  |
| scFv R3G10-P5A08 (scFv, V domains shown, scFv) VH: QVQLVQSGAEVKKPGSSVKVSCKASGGTFNNFAISWVRQAPGQGLEWMGGIIPIFDATNYAQKFQGRVTFTADESTSTAYMELSSLRSEDTAVYYCARGEYSSGFFFVGWFDLWGRGTQVTVSS VL: not shown | ≥ 3 |  |
| scFv G8-P1A06 (scFv, V domains shown, scFv) VH: QVQLVQSGAEVKKPGASVKVSCKASGYTFTNYYMHWVRQAPGQGLEWMGWMNPIGGGTGYAQKFQGRVTMTRDTSTSTVYMELSSLRSEDTAVYYCARVYDFWSVLSGFDIWGQGTLVTVSS VL: DIQMTQSPSSLSASVGDRVTITCRASQAISNSLAWYQQKPGKAPKLLIYAASTLQSGVPSRFSGSGSGTDFTLTISSLQPEDFATYYCGQSYSTPPTFGQGTKLEIK |  | ≥ 3 |
| scFv R3G10-P1F06 (scFv, V domains shown, scFv) VH: QVQLVQSGAEVKKPGASVKVSCKASGYTFIGYYMHWVRQAPGQGLEWMGMIGPSDGSTSYAQKFQGRVTMTRDTSTSTVYMELSSLRSEDTAVYYCARDSSGLDPWGQGTLVTVSS VL: DIQMTQSPSSLSASVGDRVTITCRASQSISNYLNWYQQKPGKAPKLLIYKASSLESGVPSRFSGSGSGTDFTLTISSLQPEDFATYYCQQSYIIPYTFGQGTKLEIK | ≥ 3 |  |

The remaining lines, values ahead:

| fold selective binding, target pHLA vs minipool of negative control pHLAs [1] [fold] | fold selective binding, target pHLA vs minipool of negative control pHLAs [2] [fold] | Binder |
| --- | --- | --- |
| ≥ 3 |  | scFv R3G10-P4E07 (scFv, V domains shown, scFv) VH: QVQLVQSGAEVKKPGSSVKVSCKASGYTFTGYYMHWVRQAPGQGLEWMGRISPSDGSTTYAPKFQGRVTITADESTSTAYMELSSLRSEDTAVYYCARDMGDAFDIWGQGTTVTVSS VL: not shown |
| ≥ 3 |  | scFv R3G10-P2C04 (scFv, V domains shown, scFv) VH: QVQLVQSGAEVKKPGASVKVSCKASGGTFSNSIINWVRQAPGQGLEWMGWMNPNSGNTNYAQKFQGRVTMTRDTSTSTVYMELSSLRSEDTAVYYCAREQWPSYWYFDLWGRGTLVTVSS VL: not shown |
|  | ≥ 3 | scFv G8-P1B03 (scFv, V domains shown, scFv) VH: EVQLLESGGGLVQPGGSLRLSCAASGFTFSDYYMSWVRQAPGKGLEWVSGINWNGGSTGYADSVKGRFTISRDNSKNTLYLQMNSLRAEDTAVYYCARVEQGYDIYYYYYMDVWGKGTTVTVSS VL: DIQMTQSPSSLSASVGDRVTITCRASQSISSYLNWYQQKPGKAPKLLIYKASSLESGVPSRFSGSGSGTDFTLTISSLQPEDFATYYCQQSYSAPYTFGPGTKVDIK |
| ≥ 3 |  | scFv R3G10-P1H08 (scFv, V domains shown, scFv) VH: QVQLVQSGAEVKKPGASVKVSCKASGVTFSTSAISWVRQAPGQGLEWMGWISPYNGNTDYAQMLQGRVTMTRDTSTSTVYMELSSLRSEDTAVYYCARDAHQYYDFWSGYYSGTYYYGMDVWGQGTTVTVSS VL: DIQMTQSPSSLSASVGDRVTITCRASQGISNYLAWYQQKPGKAPKLLIYSASNLQSGVPSRFSGSGSGTDFTLTISSLQPEDFATYYCQQAYSFPWTFGQGTKVEIK |
| ≥ 3 |  | scFv R3G10-P1H01 (scFv, V domains shown, scFv) VH: QVQLVQSGAEVKKPGASVKVSCKASGYTFTGYYMHWVRQAPGQGLEWMGMIGPSDGSTSYAQKFQGRVTMTRDTSTSTVYMELSSLRSEDTAVYYCARGVGNLDYWGQGTLVTVSS VL: DIQMTQSPSSLSASVGDRVTITCRASQSISNYLNWYQQKPGKAPKLLIYAASSLQSGVPSRFSGSGSGTDFTLTISSLQPEDFATYYCHQTYSTPLTFGQGTKVEIK |
| ≥ 3 |  | scFv R3G10-P4A02 (scFv, V domains shown, scFv) VH: QVQLVQSGAEVKKPGASVKVSCKASGYTLSYYYMHWVRQAPGQGLEWMGMIGPSDGSTSYAQRFQGRVTMTRDTSTGTVYMELSSLRSEDTAVYYCARDTGDHFDYWGQGTLVTVSS VL: not shown |
| ≥ 3 |  | scFv R3G10-P4E12 (scFv, V domains shown, scFv) VH: QVQLVQSGAEVKKPGASVKVSCKASGYTFTGYYMHWVRQAPGQGLEWMGMIGPSDGSTSYAQRFQGRVTMTRDTSTSTVYMELSSLRSEDTAVYYCAREEDGMDVWGQGTTVTVSS VL: DIQMTQSPSSLSASVGDRVTITCRASQGISTYLAWYQQKPGKAPKLLIYDASSLQSGVPSRFSGSGSGTDFTLTISSLQPEDFATYYCQQYYSYPWTFGQGTRLEIK |
